Patent US20260263563A1, “Method of Treatment of a Thoracolumbar Deformity in a Human Subject with Achondroplasia” (Ascendis Pharma Growth Disorders A/S, priority 2023, published 2026)
Read-outs that look alike come from different tables or passages of the source.

Legend:
[1] = tested on: prepubertal children with achondroplasia
Protocol: The study enrolled a minimum of 60 male and female prepubertal children with ACH aged 2 to 10 years old. The clinical trial is listed on www.clinicaltrials.gov under the ClinicalTrials.gov Identifier: NCT04085523. The objectives of the study were as follow:
This trial is a multicenter trial consisting of two treatment periods.
Participants should rest for at least 5 minutes before vital sign measurement and vital signs should be taken prior to any blood draws. The following vital signs should be measured: • Heart Rate (measured in beats per minute) • Blood Pressure (seated BP will be taken measured in mm Hg) • Temperature [measured in degrees Celsius (° C.) or Fahrenheit (° F.)]
All vital signs above must be measured at all visits. […] Orthostatic hypotension is defined as decrease in SBP of ≥20 mmHg (Stewart et al., Pediatrics, 141, 1-13, 2018). Accompanying tachycardia is defined as change of heart rate increment of ≥40 bpm and absolute orthostatic HR≥130 bpm (for ages 13 years and younger) (Singer et al., Journal of Pediatrics, 160, 222-226, 2012). Additionally, at Visit 1 and Visit 7 (in the Open-Label Extension Period), all vital signs must be monitored at 1 hour and 2 hours post injection of the study drug.

[2] = tested on: Fgfr3^Y367C/+ mice
Source text: The Y367C mutation was introduced into exon 9 of the mouse Fgfr3 gene along with a NEO cassette flanked by LoxP recombination sites. Due to the CMV promoter, the expression of the Fgfr3 Fgfr3^Y367C/+ is ubiquitous. Off-spring consisted of both Fgfr3^Y367C/+ and Fgfr3+/+ wild-type (WT) littermates.
Survival of pups was monitored daily during the 15 days of treatment and registered in treatment diaries.

[3] = tested on: prepubertal children with achondroplasia; remark: listed apart in the source
Protocol: SF-10™ Health Survey for Children is a 10-item parent-completed survey that covers a wide range of domains affecting a child's functional health and well-being (QualityMetric.com), with 5 items primarily related to physical health (PhS), and 5 items primarily related to psyhocosial health (PsS).
The survey was conducted at the following time points; baseline and week 52.
SF-10 assesses, inter alia, physical health (PhS). 5 items of the SF-10 were selected for the assessment of physical health parameters as follows: • Limited in things that take some energy • Limited in bending, lifting, stooping • Limited in kind of schoolwork/activities due to physical health • Subjects health in general • How much bodily pain or discomfort
For each response provided by a subject, a value is assigned and used to calculate the overall physical summary score in accordance with established guidelines (See The SF-10 Health Survey for Children User's Guide by QualityMetric). For reference, in accordance with the User's Guide, the SF-10 scale scores were centered so that a score of 50 corresponds to an average score in a 2006 sample (a combination of general population and supplemental disability and chronic condition samples).

[4] = 57 patients followed for up to 65 weeks
[5] = more than 2,000 injections administered

With Navepegritide [Compound (1)] as the substance, how does the “Serious TEAE” value ([1]; 6 μg/kg/week (n = 10)) read?
Its value is 1 (10.0).

And the “Subject with Treatment-Emergent Adverse Events (TEAE)” value (from here on “Subject … (TEAE)”) ([1]; 6 μg/kg/week (n = 10))?
The value was 9 (90.0).

What about the “Subjects with at Least One Treatment-Related TEAE” value (“Subjects” for short) ([1]; 6 μg/kg/week (n = 10)) of the same substance?
Its value is 3 (30.0).

What about the “TEAE Grade 1” value ([1]; 6 μg/kg/week (n = 10)) of the same substance?
The value was 9 (90.0).

What about the “TEAE Grade 2” value ([1]; 6 μg/kg/week (n = 10)) of the same substance?
The value was 3 (30.0).

What about the “Treatment-Related TEAE” value ([1]; 6 μg/kg/week (n = 10)) of the same substance?
The value was 3 (30.0).

What about the “Treatment-related: Abdominal pain upper” value ([1]; 6 μg/kg/week (n = 10)) of the same substance?
The value was 0.

And the “Treatment-related: Dizziness” value ([1]; 6 μg/kg/week (n = 10))?
Its value is 0.

What about the “Treatment-related: Injection site reaction” value ([1]; 6 μg/kg/week (n = 10)) of the same substance?
The value was 2 (20.0).

And the “Treatment-related: Overdose” value ([1]; 6 μg/kg/week (n = 10))?
The value was 0.

And the “Treatment-related: Sleep terror” value ([1]; 6 μg/kg/week (n = 10))?
The value was 0.

And the “Treatment-related: Urticaria” value ([1]; 6 μg/kg/week (n = 10))?
Its value is 1 (10.0).

What about the “Achondroplasia-Related TEAE” value ([1]; 6 μg/kg/week (n = 10), placebo 9 (60.0)) of the same substance?
Its value is 3 (30.0).

What about the “Achondroplasia-Related TEAE” value ([1]; 20 μg/kg/week (n = 11)) of the same substance?
Its value is 4 (36.4).

What about the “Serious TEAE” value ([1]; 20 μg/kg/week (n = 11)) of the same substance?
Its value is 0.

What about the “Subject … (TEAE)” value ([1]; 20 μg/kg/week (n = 11)) of the same substance?
Its value is 11 (100.0).

And the “Subjects” value ([1]; 20 μg/kg/week (n = 11))?
Its value is 2 (18.2).

What about the “TEAE Grade 1” value ([1]; 20 μg/kg/week (n = 11)) of the same substance?
The value was 11 (100.0).

What about the “TEAE Grade 2” value ([1]; 20 μg/kg/week (n = 11)) of the same substance?
Its value is 3 (27.3).

And the “Treatment-Related TEAE” value ([1]; 20 μg/kg/week (n = 11))?
The value was 2 (18.2).

What about the “Treatment-related: Abdominal pain upper” value ([1]; 20 μg/kg/week (n = 11)) of the same substance?
Its value is 1 (9.1).

And the “Treatment-related: Dizziness” value ([1]; 20 μg/kg/week (n = 11))?
Its value is 0.

And the “Treatment-related: Injection site reaction” value ([1]; 20 μg/kg/week (n = 11))?
Its value is 1 (9.1).

And the “Treatment-related: Overdose” value ([1]; 20 μg/kg/week (n = 11))?
Its value is 0.

What about the “Treatment-related: Sleep terror” value ([1]; 20 μg/kg/week (n = 11)) of the same substance?
The value was 0.

And the “Treatment-related: Urticaria” value ([1]; 20 μg/kg/week (n = 11))?
The value was 0.

And the “Achondroplasia-Related TEAE” value ([1]; 50 μg/kg/week (n = 10))?
Its value is 5 (50.0).

And the “Serious TEAE” value ([1]; 50 μg/kg/week (n = 10))?
The value was 1 (10.0).

And the “Subject … (TEAE)” value ([1]; 50 μg/kg/week (n = 10))?
Its value is 10 (100.0).

And the “Subjects” value ([1]; 50 μg/kg/week (n = 10))?
Its value is 3 (30.0).

And the “TEAE Grade 1” value ([1]; 50 μg/kg/week (n = 10))?
The value was 10 (100.0).

What about the “TEAE Grade 2” value ([1]; 50 μg/kg/week (n = 10)) of the same substance?
Its value is 3 (30.0).

What about the “Treatment-Related TEAE” value ([1]; 50 μg/kg/week (n = 10)) of the same substance?
The value was 3 (30.0).

And the “Treatment-related: Abdominal pain upper” value ([1]; 50 μg/kg/week (n = 10))?
The value was 0.

And the “Treatment-related: Dizziness” value ([1]; 50 μg/kg/week (n = 10))?
The value was 0.

What about the “Treatment-related: Injection site reaction” value ([1]; 50 μg/kg/week (n = 10)) of the same substance?
The value was 3 (30.0).

And the “Treatment-related: Overdose” value ([1]; 50 μg/kg/week (n = 10))?
Its value is 0.

And the “Treatment-related: Sleep terror” value ([1]; 50 μg/kg/week (n = 10))?
The value was 0.

And the “Treatment-related: Urticaria” value ([1]; 50 μg/kg/week (n = 10))?
Its value is 0.

What about the “Achondroplasia-Related TEAE” value ([1]; 100 μg/kg/week (n = 11)) of the same substance?
Its value is 1 (9.1).

And the “Serious TEAE” value ([1]; 100 μg/kg/week (n = 11))?
Its value is 0.

And the “Subject … (TEAE)” value ([1]; 100 μg/kg/week (n = 11))?
Its value is 10 (90.9).

And the “Subjects” value ([1]; 100 μg/kg/week (n = 11))?
Its value is 2 (18.2).

And the “TEAE Grade 1” value ([1]; 100 μg/kg/week (n = 11))?
The value was 9 (81.8).

And the “TEAE Grade 2” value ([1]; 100 μg/kg/week (n = 11))?
The value was 1 (9.1).

What about the “Treatment-Related TEAE” value ([1]; 100 μg/kg/week (n = 11)) of the same substance?
The value was 2 (18.2).

What about the “Treatment-related: Abdominal pain upper” value ([1]; 100 μg/kg/week (n = 11)) of the same substance?
The value was 0.

And the “Treatment-related: Dizziness” value ([1]; 100 μg/kg/week (n = 11))?
Its value is 0.

And the “Treatment-related: Injection site reaction” value ([1]; 100 μg/kg/week (n = 11))?
The value was 2 (18.2).

And the “Treatment-related: Overdose” value ([1]; 100 μg/kg/week (n = 11))?
The value was 0.

And the “Treatment-related: Sleep terror” value ([1]; 100 μg/kg/week (n = 11))?
The value was 0.

What about the “Treatment-related: Urticaria” value ([1]; 100 μg/kg/week (n = 11)) of the same substance?
The value was 0.

And the “reporting of achondroplasia related treatment emergent adverse events” value ([1]; 100 μg/kg/week dose group, 60% in the placebo group)?
Its value is 9.1%.

What about the AEs on orthostatism [1, 4] of the same substance?
The AEs on orthostatism was “no AEs reported on orthostatism”.

And the “serious adverse events related to the trial drug” value [1, 4]?
Its value is “no serious adverse events related to the trial drug”.

And the “withdrawals or discontinuations from the trial” value [1, 4]?
Its value is “no withdrawals or discontinuations”.

What about the “total AEs related to trial drug or procedures” value ([1]; 57 patients, more than 1900 injections) of the same substance?
Its value is 13.

What about the “severity of ISRs” value ([1]; all ISRs) of the same substance?
The value was “mild”.

What about the injection site reactions ([1]; among more than 1900 injections) of the same substance?
Its injection site reactions is 8.

What about the “number of injection site reactions (ISRs)” value [1, 5] of the same substance?
Its value is 11.

And the “number of patients with ISRs” value [1, 5]?
The value was 8.

What about the tolerability of injections ([1]; weekly s.c. injections) of the same substance?
Its tolerability of injections is “well tolerated with a low frequency of injection site reactions”.

What about the “tolerability, adverse clinical signs” value ([2]; Fgfr3^Y367C/+ pups, 15 days of treatment) of the same substance?
Its value is “well tolerated, and no adverse clinical signs were observed”.

What about the “Number of mice surviving to day 15” value ([2]; Fgfr3^Y367C/+ pups, 5.6 mg/kg/day s.c., 15 days from day 1 after birth, 14 mice included) of the same substance?
Its value is 12.

What about the “Number of mice surviving to day 15” value ([2]; Fgfr3^Y367C/+ pups, […] third day s.c., 13 mice included) of the same substance?
The value was 11.

What about the “survival of pups compared with untreated pups” value ([2]; either dose level, P<0.05, Log-rank (Mantel-Cox) test, untreated = vehicle treated and historic survival combined) of the same substance?
Its value is “significantly improved survival”.

And the “registered incidence of maternal infanticide” value ([2]; treated groups)?
The value was “marked reduction”.

And the “SF-10 Physical Summary Score, Wk 52 (S.E)” value ([3]; 100 μg/kg (SC) weekly, week 52)?
Its value is 40.70 (6.87).

And the “SF-10 Physical Summary Score, Change from Baseline” value ([3]; 100 μg/kg (SC) weekly, week 52, placebo −3.04 (3.82))?
The value was “+5.91 (1.65)”.

And the “SF-10 PsS score” value ([3]; 100 μg/kg weekly, after 52 weeks of treatment)?
The value was “improvement trend”.

And the “SF-10 PhS score compared with baseline” value ([3]; 100 μg/kg weekly, week 52)?
The value was “marked increase”.

And the “SF-10 Physical Summary, treated versus placebo” value ([3]; 100 μg/kg/week for one year (n=19) vs placebo (n=15), p=0.002, ages 5 years and older)?
The value was “statistically significant improved outcome”.

What about the “ACEM Emotional Well-being, treated versus placebo” value ([3]; 100 μg/kg/week for one year vs placebo, p=0.045) of the same substance?
Its value is “statistically significant improved outcome”.

And the “ACEM Daily Living Function, treated versus placebo” value ([3]; 100 μg/kg/week for one year vs placebo, p=0.047)?
Its value is “statistically significant improved outcome”.
